# Data from paper PMC5120205 (2016).
# Key:
# IsdB NEAT2 domain = IsdB NEAT2 domain (Staphylococcus aureus strain USA300); assay: SPR
# [1] = molecular target: recombinant full-length IsdB (Staphylococcus aureus strain USA300, UniProt Q2FHV2 41-613); assay: SPR
Binder,Kd (IsdB NEAT2 domain) [nM],Kd [1] [nM]
"D2-06-N2 (IGHV1-69*01 germline-reverted) (antibody, V domains shown) VH: QVQLVQSGAEVKKPGSSVKVSCKASGGTFSSYAISWVRQAPGQGLEWMGGIIPIFGTANYAQKFQGRVTITADESTSTAYMELSSLRSEDTAVYYCARDRPPGAQFDTWGQGTLVTVSS VL: not shown",24.1,–
"D4-10-N1 germline-reverted (IGHV4-39) (antibody, V domains shown) VH: QLQLQESGPGLVKPSETLSLTCTVSGGSISSSSYYWGWIRQPPGKGLEWIGSIYYSGSTYYNPSLKSRVTISVDTSKNQFSLKLSSVTAADTAVYYCAKPKSRDRGGPGDDYFGMDVWGQGIMVTVSS VL: DIQLTQSPSFLSASVADRVTITCRASQAVRSSLAWYQQKPGKAPQLLIYSASTLENGVSSRFSGSGPGTEFTLTISSLQPEDVGTYYCQQLNTYPFTFGPGTKVEIK",–,90.7
